Reference: article PMC10239968, “[^18F]AlF-NOTA-ADH-1: A new PET molecular radiotracer for imaging of N-cadherin-positive tumors” (Frontiers in Oncology, 2023)

Legend:
in vivo = test: in vivo; set-up: species or system BALB/c nu/nu mice; conditions: female, BALB/c nu/nu, mouse, in vivo, iv, 0.74 MBq (20 uCi) per mouse, total radioactivity
Procedure: (§1) All animal experiments were performed in accordance with and approved by the Institutional Animal Care and Use Committee guidelines of the First Affiliated Hospital of Zhejiang University School of Medicine. BALB/c nu/nu mice (female, 20 ± 3 g, 4- to 6-week-old; Department of Laboratory Animal Science, Zhejiang University) were used in this study. The SW480 and BxPC3 xenografts were generated, and 5×10^6 tumor cells were subcutaneously injected into the flanks of female athymic nude mice. The PDX-bearing mouse models were established as follows. Pancreatic cancer (diagnosed as pancreatic ductal adenocarcinoma) tissues were obtained from the surgery of a patient. Written informed consent was obtained from the patient, and the research protocol was approved by the Clinical Research Ethics Committee of the First Affiliated Hospital of Zhejiang University School of Medicine. The sample was sectioned into about 1mm^3 pieces, and the tumor tissues were subcutaneously implanted into BALB/c nu/nu mice flanks. Mice were allowed free access to sterile water and food and were kept under strict disease-free conditions with controlled temperature (~25°C), humidity (50-70%), and circadian rhythms (12-hour light/dark cycles). All necessary procedures were carried out to minimize discomfort and avoid the waste of animals. The length and width of the tumor were measured every other day. Biodistribution studies and positron emission tomography in mice were performed after the tumor volume reached 150 to 200 mm^3.
(§2) The BALB/c nude mice were randomized into different tumor models (SW480, BxPC3, and pancreatic PDX), including 5 mice per group. Each nude mouse was injected with 0.74MBq (20μCi) [^18F]AlF-NOTA-ADH-1 through the caudal vein. Blood was collected from the orbit, and the mice were dissected to collect the brain, heart, lung, liver, liver, spleen, stomach, intestine, muscle, bone and others at 30 min, […], 60min, 90min and 120min after injection. In the blocked group, the study was performed with a saturating dose of ADH-1 (20 mg/kg of mouse body weight) intravenously administered 60min before the intravenous injection of [^18F]AlF-NOTA-ADH-1 in the pancreatic PDX model and SW480 xenograft model. The mice in the tumor xenograft model were sacrificed 1h after [^18F]AlF-NOTA-ADH-1 injection. The nude mice were dissected, and tumor tissues and related tissues (blood, brain, heart, lung, liver, spleen, kidney, stomach, intestine, muscle and bone) were weighed, and their radioactivity was measured by γ-counter. The radioactivity results were recorded as % ID/g.

[1] = tested on: pancreatic PDX tumor xenografts; test: in vivo; set-up: species or system BALB/c nu/nu mice; conditions: PDX xenograft nude mice, n=5, mean±SD
Procedure: as §1, §2

[2] = tested on: pancreatic PDX tumor xenografts; test: Micro-PET imaging, PDX tumor model; format: in vivo, nude mice; conditions: 60 min p.i.
Procedure: (§3) [^18F]AlF-NOTA-ADH-1 was evaluated by micro-PET imaging on nude mice bearing a PDX tumor, SW-480 and BxPC3 tumor xenografts. Each tumor-bearing nude mouse was injected with 3.7MBq [^18F]AlF-NOTA-ADH-1 via the tail vein. After being anesthetized with isoflurane, tumor-bearing nude mice were imaged using a micro-PET/CT scanner at 60 minutes post-injection under continuous isoflurane inhalation using a nasal mask with a connecting tube. Micro-PET/CT scanning was performed after low-dose 3D acquisition CT scanning at 10 minutes per bed. A blocking study was conducted, in which a saturating dose of unlabeled ADH-1 (20 mg/kg of mouse body weight) was intravenously administered 60 min before the intravenous injection of [^18F]AlF-NOTA-ADH-1.
(§4) The three-dimensional volume of interest (VOI) was used to assess the standard uptake value (SUV) of selected organs. The Seimens Inveon analysis software configured with micro-PET/CT was used to delineate the region of interest along the edge of the tumor and each normal tissue on the PET image. Subsequently, the SUV of each region of interest was measured, and the tumor/non-tumor ratio (T/NT) between the tumor and normal tissue was measured.

SW480 tumor xenografts = test: Micro-PET imaging, SW480 tumor model; format: in vivo, nude mice; conditions: SW480 tumor-bearing nude mouse model, 60 min after injecting, non-blocked
Procedure: as §3, §4

BxPC3 tumor xenografts = test: Micro-PET imaging, BxPC3 tumor model; format: in vivo, nude mice; conditions: BxPC3-bearing tumor model mice, 60 min p.i.
Procedure: as §3, §4

[3] = blocking (ADH-1 20 mg/kg i.v. 60min before), 60min p.i.

CC(=O)N[C@H]1CSSC[C@@H](C(=O)NCCNC(=O)CN2CCN(CC(=O)O)CCN(CC(=O)O)CC2)NC(=O)[C@H](C(C)C)NC(=O)[C@H](C)NC(=O)[C@H](Cc2c[nH]cn2)NC1=O [[^18F]AlF-NOTA-ADH-1]
tissue uptake at 0.5 h (in vivo; Blood uptake): 0.69 ± 0.22 %ID/g
tissue uptake at 1 h (in vivo; Blood uptake): 0.4 ± 0.18 %ID/g
tissue uptake at 1.5 h (in vivo; Blood uptake): 0.39 ± 0.11 %ID/g
tissue uptake at 2 h (in vivo; Blood uptake): 0.41 ± 0.07 %ID/g
tissue uptake at 0.5 h (in vivo; Bone uptake): 1.74 ± 0.81 %ID/g
tissue uptake at 1 h (in vivo; Bone uptake): 2.29 ± 0.96 %ID/g
tissue uptake at 1.5 h (in vivo; Bone uptake): 1.65 ± 1.3 %ID/g
tissue uptake at 2 h (in vivo; Bone uptake): 0.74 ± 0.35 %ID/g
tissue uptake at 0.5 h (in vivo; Brain uptake): 0.62 ± 0.14 %ID/g
tissue uptake at 1 h (in vivo; Brain uptake): 0.99 ± 0.47 %ID/g
tissue uptake at 1.5 h (in vivo; Brain uptake): 0.63 ± 0.18 %ID/g
tissue uptake at 2 h (in vivo; Brain uptake): 0.51 ± 0.27 %ID/g
tissue uptake at 0.5 h (in vivo; Heart uptake): 2.54 ± 0.97 %ID/g
tissue uptake at 1 h (in vivo; Heart uptake): 0.96 ± 0.17 %ID/g
tissue uptake at 1.5 h (in vivo; Heart uptake): 0.95 ± 0.25 %ID/g
tissue uptake at 2 h (in vivo; Heart uptake): 0.81 ± 0.28 %ID/g
tissue uptake at 0.5 h (in vivo; Intestines uptake): 3.82 ± 0.12 %ID/g
tissue uptake at 1 h (in vivo; Intestines uptake): 2.14 ± 0.04 %ID/g
tissue uptake at 1.5 h (in vivo; Intestines uptake): 3.93 ± 2.67 %ID/g
tissue uptake at 2 h (in vivo; Intestines uptake): 2.53 ± 2 %ID/g
tissue uptake at 1 h (in vivo; Muscle uptake): 1.56 ± 0.07 %ID/g
tissue uptake at 1.5 h (in vivo; Muscle uptake): 2.03 ± 0.05 %ID/g
tissue uptake at 2 h (in vivo; Muscle uptake): 1.18 ± 0.6 %ID/g
tissue uptake at 0.5 h (in vivo; Skin uptake): 0.11 ± 0.04 %ID/g
tissue uptake at 1 h (in vivo; Skin uptake): 0.95 ± 0.46 %ID/g
tissue uptake at 1.5 h (in vivo; Skin uptake): 1.51 ± 0.02 %ID/g
tissue uptake at 2 h (in vivo; Skin uptake): 1.56 ± 0.66 %ID/g
tissue uptake at 0.5 h (in vivo; Stomach uptake): 3.23 ± 1.69 %ID/g
tissue uptake at 1 h (in vivo; Stomach uptake): 3.4 ± 0.12 %ID/g
tissue uptake at 1.5 h (in vivo; Stomach uptake): 6.16 ± 1.58 %ID/g
tissue uptake at 2 h (in vivo; Stomach uptake): 1.6 ± 1.04 %ID/g
T/Blood ratio [1, 3]: 9.39± 0.10
T/Muscle ratio [1, 3]: 2.12±0.06
Tumor uptake [1, 3]: 3.75±0.07 %ID/g
T/Blood ratio ([1]; non-blocking, 30min p.i.): 10.72± 1.02
T/Muscle ratio ([1]; non-blocking, 30min p.i.): 5.69±0.72
Tumor uptake ([1]; non-blocking, 30min p.i.): 8.04±1.82 %ID/g
T/Blood ratio ([1]; non-blocking, 60min p.i.): 19.21± 2.20
T/Muscle ratio ([1]; non-blocking, 60min p.i.): 8.70±2.68
Tumor uptake ([1]; non-blocking, 60min p.i.): 10.76±2.16 %ID/g
T/Blood ratio ([1]; non-blocking, 90min p.i.): 13.54± 0.35
T/Muscle ratio ([1]; non-blocking, 90min p.i.): 4.15±1.86
Tumor uptake ([1]; non-blocking, 90min p.i.): 7.18±0.53 %ID/g
T/Blood ratio ([1]; non-blocking, 120min p.i.): 10.27±1.36
T/Muscle ratio ([1]; non-blocking, 120min p.i.): 3.97±1.56
Tumor uptake ([1]; non-blocking, 120min p.i.): 4.93±1.65 %ID/g
Micro-PET tumor/muscle ratio ([2]; 3.7MBq i.v., SUV-based T/NT): 8.069±2.832
Micro-PET T/Lung ([2]; printed in the sentence on blocking with unlabeled ADH-1 (group unclear)): 5.062 ± 0.805
Micro-PET T/Bone (SW480 tumor xenografts): 1.903±0.273
Micro-PET T/Lung (SW480 tumor xenografts): 3.359±2.998
Micro-PET tumor/muscle ratio (SW480 tumor xenografts): 1.443±0.121
Micro-PET T/Bone (BxPC3 tumor xenografts): 0.055 ± 0.022
Micro-PET T/Lung (BxPC3 tumor xenografts): 0.291 ± 0.195
Micro-PET tumor/muscle ratio (BxPC3 tumor xenografts): 1.018 ± 0.498
